This note sets out measurements from patent CN110713539A.

The assay deals with CEA抗原 (癌胚抗原, Carcinoembrynio Antigen), soluble antigen (UniProt P06731). Description: SPR (Biacore), antibody immobilised on chip, antigen in solution, 1:1 binding. For orientation: Surface plasmon resonance follows binding to a sensor surface in real time, without labels.
UniProt P06731, sequence (P06731 35-685 limits assumed): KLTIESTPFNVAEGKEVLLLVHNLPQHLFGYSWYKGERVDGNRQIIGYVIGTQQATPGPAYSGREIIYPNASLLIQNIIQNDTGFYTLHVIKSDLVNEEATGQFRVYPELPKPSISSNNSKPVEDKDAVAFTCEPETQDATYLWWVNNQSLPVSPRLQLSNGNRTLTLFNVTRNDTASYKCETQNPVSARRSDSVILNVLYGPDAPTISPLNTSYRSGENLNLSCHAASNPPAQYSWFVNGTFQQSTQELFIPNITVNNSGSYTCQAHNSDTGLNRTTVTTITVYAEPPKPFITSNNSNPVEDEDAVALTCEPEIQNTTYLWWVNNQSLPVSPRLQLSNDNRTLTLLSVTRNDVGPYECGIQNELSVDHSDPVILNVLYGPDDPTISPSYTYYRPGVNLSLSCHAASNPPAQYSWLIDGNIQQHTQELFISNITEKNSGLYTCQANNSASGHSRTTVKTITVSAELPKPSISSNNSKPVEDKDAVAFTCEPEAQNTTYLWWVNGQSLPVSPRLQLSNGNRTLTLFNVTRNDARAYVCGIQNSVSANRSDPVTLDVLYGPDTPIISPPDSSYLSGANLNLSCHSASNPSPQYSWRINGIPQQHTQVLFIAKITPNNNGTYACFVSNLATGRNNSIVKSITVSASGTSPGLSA

B1: OLD-2ND-3-H6-scFv-mIgG1 (Fc fusion, part only; not given: linker and mouse Fc tag, not shown: a dimerising Fc or GST)
chain, part: ETTLTQSPGTLSLSPGERATLSCRASQSVNNNFLGWYQQRVGQAPRLLIYGASSRATGIPDRFSGSGSGTDFTLTISRLEPEDFAVYYCQQYGSSPLTFGGGTKVEIKMAQVQLQESGGGSVQPGGSLRLSCAASGFTFSSYAMSWVRQAPGKGLEWVSHISGSGGNTYYADSVKGRFTISRDNSKNTLYLQMNSLRAEDTAVYYCAKSWGSSNYGTFDIWGQGTVVTVSS
Turning to B1, the Kd (in general, the free concentration of one partner at which half of the binding sites on the other are occupied at equilibrium, for simple one-to-one binding) is 43.1 nM; the dissociation rate constant (koff) (in general, the rate constant with which the complex falls apart) was determined as 0.0111 s⁻¹; the kon (commonly a measure of how fast the partners come together) was 259000 M⁻¹ s⁻¹.
